Test results taken from IntAct's records for PubMed 22821967.

B1: Uncharacterized protein YpfA (Bacillus subtilis), P38491 (parent)
chain: MIEIGENVLLEYIEENELKKAKSKAVSIENNELLIAYPVDVVTGRTVILHNDMEVTVEFVGKDEVPYRFISRIKGKVKDKLQMICLEMPPREKMKRIQRRQYVRTDAVLDVQIQPGNEEEIRTLSYNISAGGIAVVLADGLSFQSGESLRLIIRLPEEEHTRQIETEAVVRRIFNDPKSEKRKMTLEYSEIAAGDQQALLQYCIRRQLNKRRKARME
partner: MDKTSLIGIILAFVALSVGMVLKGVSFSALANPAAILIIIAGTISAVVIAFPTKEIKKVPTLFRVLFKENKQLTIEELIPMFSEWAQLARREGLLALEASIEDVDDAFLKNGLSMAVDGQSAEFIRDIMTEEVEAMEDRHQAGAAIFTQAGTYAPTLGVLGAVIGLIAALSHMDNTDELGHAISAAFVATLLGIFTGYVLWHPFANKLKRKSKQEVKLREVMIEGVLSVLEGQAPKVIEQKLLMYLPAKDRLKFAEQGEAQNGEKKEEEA

Variants of: B1
Conditions: with mota_bacsu motA

Effect of a mutation on the interaction, disrupting interaction:
G132A
R100F
N127A
R104D
